# The Human Domainome abundance scans (Beltran et al. 2025)
# ± gives the uncertainty stated by the source.
# B1: Tumor protein p73, residues 487 to 549; numbered along this chain, O15350 (parent)
# chain: YHADPSLVSFLTGLGCPNCIEYFTSQGLQSIYHLQNLTIEDLGALKIPEQYRMTIWRGLQDLK
# Variants of: B1
# Experiment: abundance fitness (aPCA) (normalised: wild type 0, dead -1); higher = more abundant; growth selection in yeast, the domain comes from the species named
# Conditions: Homo sapiens
row,Variant,abundance fitness
1,YHADPSLVSFLTGLGCPNCIEYFTSQGLQSIYHLQNLTIEDLGALKIPEQYRMTFWRGLQDLK,-0.601 ± 0.096
2,YHADPSLVSFLTGLGCPNCIEYFTYQGLQSIYHLQNLTIEDLGALKIPEQYRMTIWRGLQDLK,-0.266 ± 0.082
3,YHADPSLVSFLTGLGCPNCIEYFTSQGLQSIYHLQNLTIEDLGALKIPEAYRMTIWRGLQDLK,0.08 ± 0.035
4,YHADPSLVSFLTGLGCPNCIEYFTSQGLQSIYHLQNLTIEDLGALKIPEQYEMTIWRGLQDLK,-0.075 ± 0.051
5,YHADPSLVSFLTGLGPPNCIEYFTSQGLQSIYHLQNLTIEDLGALKIPEQYRMTIWRGLQDLK,-1.01 ± 0.27
6,YHADPSLVSFLTGLGCPNCIEYFTSQGLQSIYHLQNLTIEDLGALKIPEQYRMTIWRGSQDLK,-0.265 ± 0.039
7,YHADPSLVSFLTGLGCPNCIEYFTSQGLQSIYHLQSLTIEDLGALKIPEQYRMTIWRGLQDLK,0.046 ± 0.039
8,YHADPSLVSFLTGLGCTNCIEYFTSQGLQSIYHLQNLTIEDLGALKIPEQYRMTIWRGLQDLK,0.028 ± 0.048
9,YHADPSLVSFLTGLGCKNCIEYFTSQGLQSIYHLQNLTIEDLGALKIPEQYRMTIWRGLQDLK,0.075 ± 0.04
10,YHADPSLVSFLTGLGCPNCIEYFTSQGLQSIYHLQNLTIEDLGALKIPEQYRMTIWSGLQDLK,-0.114 ± 0.043
11,YHADPYLVSFLTGLGCPNCIEYFTSQGLQSIYHLQNLTIEDLGALKIPEQYRMTIWRGLQDLK,-0.197 ± 0.16
12,YHADPSLVSFLTGLGCPNCIEYFTSQGLQGIYHLQNLTIEDLGALKIPEQYRMTIWRGLQDLK,-0.086 ± 0.03
13,YHADPSLVSFLTWLGCPNCIEYFTSQGLQSIYHLQNLTIEDLGALKIPEQYRMTIWRGLQDLK,-0.315 ± 0.051
14,YHADPSLVSFLTLLGCPNCIEYFTSQGLQSIYHLQNLTIEDLGALKIPEQYRMTIWRGLQDLK,-0.124 ± 0.035
15,YHADPSLVSFLTGLGCPNCIEYFTSMGLQSIYHLQNLTIEDLGALKIPEQYRMTIWRGLQDLK,-0.207 ± 0.044
16,YHADPSLVSFLTGLGCPNCIEYFTSQGLQSIYILQNLTIEDLGALKIPEQYRMTIWRGLQDLK,-0.216 ± 0.072
17,YHADPSLVSFLTGLGCPNCIEYFTSQGLQSIYQLQNLTIEDLGALKIPEQYRMTIWRGLQDLK,0.069 ± 0.043
18,YHADPSLVSFLTGLGCPNCIEYFTSQGLQSIYCLQNLTIEDLGALKIPEQYRMTIWRGLQDLK,-0.051 ± 0.061
19,YHADPSLVMFLTGLGCPNCIEYFTSQGLQSIYHLQNLTIEDLGALKIPEQYRMTIWRGLQDLK,-0.207 ± 0.054
20,YHADPSLVSFLTGLGCPNCIEYFTSQGLQSIYHLQNLTIEDLGALKIPEQYRMTIWRNLQDLK,-0.36 ± 0.078
21,YHADPSLVSFLTGLGCPNCIEYFTSQGLQSIYHLQNLTIEDLGALKIQEQYRMTIWRGLQDLK,-0.208 ± 0.044
22,YHADPSLVSFLTGLGCPNCIEYFTSQGLQSIYHLQNLTIEDLGALKIPGQYRMTIWRGLQDLK,-0.123 ± 0.034

row,Variant,abundance fitness
1,YHADPSLVSFLTGLGCPNCIEYFTSQGLQSIYHMQNLTIEDLGALKIPEQYRMTIWRGLQDLK,0.021 ± 0.051
2,YHADPSLVSFLTGLGCPNCIEYFTSQGLQSIYHLQNLTIEDLGAWKIPEQYRMTIWRGLQDLK,-0.345 ± 0.047
3,YHADPSLVSFLTGLGCPNCIEYFTSQGLQSIYHLQNLTIEDLGAYKIPEQYRMTIWRGLQDLK,0.04 ± 0.1
4,YHADPSLVSFLTGLGCPNCIEYFTSQGLQSIYHLQNLTIEDLGALKIPEQYRMTIWRGLQDYK,0.008 ± 0.087
5,YHADPSLVSFLTGLGCPNCIEYFTSQGLQSIYHLQNLTIEDLGALKIPEQYRMTIWRGLQDAK,-0.104 ± 0.045
6,THADPSLVSFLTGLGCPNCIEYFTSQGLQSIYHLQNLTIEDLGALKIPEQYRMTIWRGLQDLK,0.109 ± 0.13
7,YHADPSLVSFLTGLGCPNCIEYFTSQGLMSIYHLQNLTIEDLGALKIPEQYRMTIWRGLQDLK,0.03 ± 0.04
8,YHADPSLVSFLTGLGCPNCIEYFTSQGLASIYHLQNLTIEDLGALKIPEQYRMTIWRGLQDLK,-0.047 ± 0.037
9,YHADPSLVSFLTGLGCPNCIEYFYSQGLQSIYHLQNLTIEDLGALKIPEQYRMTIWRGLQDLK,-0.206 ± 0.15
10,YHADPSLVSFLTGLGCPNCIEYFTSQGLQSIYHLQNLTIEDLGALKEPEQYRMTIWRGLQDLK,-1.06 ± 0.11
11,YHADVSLVSFLTGLGCPNCIEYFTSQGLQSIYHLQNLTIEDLGALKIPEQYRMTIWRGLQDLK,0.159 ± 0.037
12,YHADRSLVSFLTGLGCPNCIEYFTSQGLQSIYHLQNLTIEDLGALKIPEQYRMTIWRGLQDLK,0.085 ± 0.033
13,YHADPSLVSFLTGLGCPNCIEYFTSQGLQSIYHLQNLTIEDLGALPIPEQYRMTIWRGLQDLK,0.01 ± 0.059
14,YHADPSLVSFLTGLGCPNCIEYFTSQGLQSIYHLQNLTIEDLGALYIPEQYRMTIWRGLQDLK,-0.301 ± 0.1
15,YHADPSLVSMLTGLGCPNCIEYFTSQGLQSIYHLQNLTIEDLGALKIPEQYRMTIWRGLQDLK,-0.424 ± 0.053
16,YHADPSLVSFLTGLGCPNCIEYFTSQLLQSIYHLQNLTIEDLGALKIPEQYRMTIWRGLQDLK,-1.02 ± 0.1
17,YHADPSLVSFLTGLGCPNCIEFFTSQGLQSIYHLQNLTIEDLGALKIPEQYRMTIWRGLQDLK,0.002 ± 0.081
18,YHADPSLVSFLTGLGCPNCMEYFTSQGLQSIYHLQNLTIEDLGALKIPEQYRMTIWRGLQDLK,0.003 ± 0.038
19,YHADPSLVSFLTGLGCPNCIEYFTSQGLQSIYHLQNLTIEDLGHLKIPEQYRMTIWRGLQDLK,-0.021 ± 0.063
20,YHADPSLVSFLTGLGCPNCIEYFTSQGLQSIYHLQNLTIEDLGALKIPEQYRMTIWRGLQGLK,0.035 ± 0.047
21,YHADPSLVSFLTGLGCPNCIEYFTSQGHQSIYHLQNLTIEDLGALKIPEQYRMTIWRGLQDLK,0.083 ± 0.13
